# Laboratory results reported in paper PMC10397247.
# T1: APC9096-AA
# T1 chain: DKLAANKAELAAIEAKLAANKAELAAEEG
# T2: 4H716-AA
# T2 chain: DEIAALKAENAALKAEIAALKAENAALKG
# T3: 4H2447-AA
# T3 chain: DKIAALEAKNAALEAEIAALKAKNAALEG
# T4: APC8910-AA
# T4 chain: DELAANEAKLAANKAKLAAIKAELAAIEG
# T5: APC8191-AA
# T5 chain: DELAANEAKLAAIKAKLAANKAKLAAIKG
# T6: 4H733-AA
# T6 chain: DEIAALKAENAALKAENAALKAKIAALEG
# T7: 4H2148-AA
# T7 chain: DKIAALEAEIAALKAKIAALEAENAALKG
# T8: APC4264-AA
# T8 chain: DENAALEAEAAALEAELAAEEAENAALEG
# T9: 4H3330-AA
# T9 chain: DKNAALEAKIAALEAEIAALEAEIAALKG
# T10: 4H2290-AA
# T10 chain: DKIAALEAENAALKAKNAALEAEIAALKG
# T11: APC3645-AA
# T11 chain: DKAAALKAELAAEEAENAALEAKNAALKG
# T12: APC9319-AA
# T12 chain: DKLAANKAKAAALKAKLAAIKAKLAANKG
# T13: APC2237-AA
# T13 chain: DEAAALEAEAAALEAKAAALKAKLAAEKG
# T14: APC1434-AA
# T14 chain: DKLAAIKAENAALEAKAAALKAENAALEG
# T15: APC6108-AA
# T15 chain: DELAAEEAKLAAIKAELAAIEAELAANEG
# T16: APC4436-AA
# T16 chain: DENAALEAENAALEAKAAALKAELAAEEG
# T17: APC5383-AA
# T17 chain: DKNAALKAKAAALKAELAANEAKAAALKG
# T18: APC4011-AA
# T18 chain: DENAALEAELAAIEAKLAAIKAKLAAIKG
# T19: APC1015-AA
# T19 chain: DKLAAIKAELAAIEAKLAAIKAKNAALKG
# T20: 4H807-AA
# T20 chain: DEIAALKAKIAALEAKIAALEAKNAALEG
# T21: APC232-AA
# T21 chain: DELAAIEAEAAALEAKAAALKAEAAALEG
# T22: APC2405-AA
# T22 chain: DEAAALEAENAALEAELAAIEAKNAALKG
# T23: APC7099-AA
# T23 chain: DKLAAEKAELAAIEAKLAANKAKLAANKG
# T24: 4H2458-AA
# T24 chain: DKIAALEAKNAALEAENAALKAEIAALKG
# T25: 4H662-AA
# T25 chain: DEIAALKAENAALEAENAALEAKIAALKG
# T26: 4H3664-AA
# T26 chain: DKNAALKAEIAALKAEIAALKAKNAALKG
# T27: 4H3605-AA
# T27 chain: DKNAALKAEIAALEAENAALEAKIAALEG
# T28: 4H3922-AA
# T28 chain: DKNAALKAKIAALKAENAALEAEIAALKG
# T29: 4H3625-AA
# T29 chain: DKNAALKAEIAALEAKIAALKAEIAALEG
# T30: 4H2726-AA
# T30 chain: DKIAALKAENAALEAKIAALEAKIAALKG
# T31: 4H2211-AA
# T31 chain: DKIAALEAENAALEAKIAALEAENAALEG
# T32: 4H1405-AA
# T32 chain: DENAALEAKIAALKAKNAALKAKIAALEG
# T33: 4H2614-AA
# T33 chain: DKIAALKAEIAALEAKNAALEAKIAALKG
# T34: 4H481-AA
# T34 chain: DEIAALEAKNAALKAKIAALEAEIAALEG
# T35: 4H4033-AA
# T35 chain: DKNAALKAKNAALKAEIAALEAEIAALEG
# T36: 4H327-AA
# T36 chain: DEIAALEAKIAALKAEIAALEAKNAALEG
# T37: 4H2608-AA
# T37 chain: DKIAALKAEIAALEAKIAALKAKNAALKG
# T38: 4H2238-AA
# T38 chain: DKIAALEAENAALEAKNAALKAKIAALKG
# T39: 4H2536-AA
# T39 chain: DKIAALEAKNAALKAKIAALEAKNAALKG
# T40: 4H1350-AA
# T40 chain: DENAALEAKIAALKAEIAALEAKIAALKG
# T41: 4H2935-AA
# T41 chain: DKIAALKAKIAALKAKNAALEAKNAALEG
# T42: 4H1198-AA
# T42 chain: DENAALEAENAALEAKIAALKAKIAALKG
# T43: 4H369-AA
# T43 chain: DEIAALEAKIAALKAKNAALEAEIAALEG
# T44: 4H55-AA
# T44 chain: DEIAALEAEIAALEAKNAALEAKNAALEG
# T45: 4H1103-AA
# T45 chain: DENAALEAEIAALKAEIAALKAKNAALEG
# T46: 4H2513-AA
# T46 chain: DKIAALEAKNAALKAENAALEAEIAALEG
# Experiments:
# Test in all cases: two-hybrid library CCmax;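 also: natural log of median RNA to DNA barcode read ratio; higher means stronger binding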
# [1] = target: T1, APC9096-AA; settings: mean of both orientations
# [2] = target: T2, 4H716-AA; settings: mean of both orientations
# [3] = target: T3, 4H2447-AA; settings: mean of both orientations
# [4] = target: T4, APC8910-AA; settings: mean of both orientations
# [5] = target: T5, APC8191-AA; settings: mean of both orientations
# [6] = target: T6, 4H733-AA; settings: mean of both orientations
# [7] = target: T7, 4H2148-AA
# [8] = target: T8, APC4264-AA; settings: mean of both orientations
# [9] = target: T9, 4H3330-AA; settings: mean of both orientations
# [10] = target: T10, 4H2290-AA; settings: mean of both orientations
# [11] = target: T11, APC3645-AA; settings: mean of both orientations
# [12] = target: T12, APC9319-AA; settings: mean of both orientations
# [13] = target: T13, APC2237-AA; settings: mean of both orientations
# [14] = target: T14, APC1434-AA; settings: mean of both orientations
# [15] = target: T15, APC6108-AA; settings: mean of both orientations
# [16] = target: T16, APC4436-AA; settings: mean of both orientations
# [17] = target: T17, APC5383-AA; settings: mean of both orientations
# [18] = target: T18, APC4011-AA; settings: mean of both orientations
# [19] = target: T19, APC1015-AA; settings: mean of both orientations
# [20] = target: T20, 4H807-AA; settings: mean of both orientations
# [21] = target: T21, APC232-AA; settings: mean of both orientations
# [22] = target: T22, APC2405-AA; settings: mean of both orientations
# [23] = target: T23, APC7099-AA; settings: mean of both orientations
# [24] = target: T24, 4H2458-AA; settings: mean of both orientations
# [25] = target: T25, 4H662-AA; settings: mean of both orientations
# [26] = target: T26, 4H3664-AA; settings: mean of both orientations
# [27] = target: T27, 4H3605-AA; settings: mean of both orientations
# [28] = target: T28, 4H3922-AA; settings: mean of both orientations
# [29] = target: T29, 4H3625-AA; settings: mean of both orientations
# [30] = target: T30, 4H2726-AA; settings: mean of both orientations
# [31] = target: T31, 4H2211-AA
# [32] = target: T32, 4H1405-AA; settings: mean of both orientations
# [33] = target: T33, 4H2614-AA; settings: mean of both orientations
# [34] = target: T34, 4H481-AA; settings: mean of both orientations
# [35] = target: T35, 4H4033-AA; settings: mean of both orientations
# [36] = target: T36, 4H327-AA
# [37] = target: T37, 4H2608-AA; settings: mean of both orientations
# [38] = target: T38, 4H2238-AA; settings: mean of both orientations
# [39] = target: T39, 4H2536-AA; settings: mean of both orientations
# [40] = target: T40, 4H1350-AA; settings: mean of both orientations
# [41] = target: T41, 4H2935-AA; settings: mean of both orientations
# [42] = target: T42, 4H1198-AA; settings: mean of both orientations
# [43] = target: T43, 4H369-AA; settings: mean of both orientations
# [44] = target: T44, 4H55-AA; settings: mean of both orientations
# [45] = target: T45, 4H1103-AA
# [46] = target: T46, 4H2513-AA; settings: mean of both orientations
binder,measurement,setting,value
DKIAALEAEIAALKAKIAALEAENAALKG [4H2148-AA],interaction score,[1],-1.24
same,interaction score,[2],-1.22
same,interaction score,[3],-1.42
same,interaction score,[4],-1.35
same,interaction score,[5],-1.4
same,interaction score,[6],-1.59
same,interaction score,[7],1.63
same,interaction score,[8],-1.81
same,interaction score,[9],-0.193
same,interaction score,[10],-1.47
same,interaction score,[11],-1.31
same,interaction score,[12],-1.42
same,interaction score,[13],-1.14
same,interaction score,[14],-1.39
same,interaction score,[15],-1.13
same,interaction score,[16],-1.32
same,interaction score,[17],-1.66
same,interaction score,[18],-0.327
same,interaction score,[19],0.959
same,interaction score,[20],-1.41
same,interaction score,[21],-1.38
same,interaction score,[22],-1.19
same,interaction score,[23],-1.55
same,interaction score,[24],-1.46
DENAALEAEIAALKAEIAALKAKNAALEG [4H1103-AA],interaction score,[25],-1.27
same,interaction score,[26],2.17
same,interaction score,[27],-1.61
same,interaction score,[28],-1.44
same,interaction score,[29],-0.923
same,interaction score,[30],-1.04
same,interaction score,[31],-1.7
same,interaction score,[32],-1.89
same,interaction score,[33],-1.01
same,interaction score,[34],-0.163
same,interaction score,[35],0.386
same,interaction score,[36],-0.714
same,interaction score,[37],0.0702
same,interaction score,[38],-1.65
same,interaction score,[39],-1.47
same,interaction score,[40],-0.275
same,interaction score,[41],-1.16
same,interaction score,[42],-1.33
same,interaction score,[43],-1.5
same,interaction score,[44],-1.09
same,interaction score,[45],1.1
same,interaction score,[46],-1.55
